For 22 molecules, binding result, Kd and IC50 results are on record in patent US20060193821, “Aptamers to the human IL-12 cytokine family and their use as autoimmune disease therapeutics” (published 2006).

By Kd is commonly meant the constant that tells how readily two partners part at equilibrium. By IC50 is commonly meant the point on the concentration scale where inhibition reaches its midpoint. Low readings indicate greater potency, high ones weaker potency.

Data set [1] addresses IL-12 (human, p35/p40 heterodimer) (Homo sapiens, UniProt P29459;P29460 SEQ:57-253,SEQ:23-328). In words: filter; no significant binding.
Data set [2] concerns the target T1, IL-23 (human, p19/p40 heterodimer) (Homo sapiens, UniProt Q9NPF7;P29460 SEQ:20-189,SEQ:23-328). The experiment in a line: filter; SHMCK, tRNA. As to conditions: tags: R&D Systems, carrier free. How it is done:
Monitoring Progress of rRfY Selection. Dot blot binding assays were performed throughout the selections to monitor the protein binding affinity of the pools. Trace ³²P-labeled RNA was combined with a dilution series of h-IL-23 and incubated at room temperature for 30 minutes in 1×SHMCK (20 mM Hepes, 120 mM NaCl, 5 mM KCl, 1 mM MgCl₂, 1 mM CaCl₂, pH 7.4) plus 0.1 mg/mL tRNA for a final volume of 20 μL. The binding reactions were analyzed by nitrocellulose filtration using a Minifold I dot-blot, 96-well vacuum filtration manifold (Schleicher & Schuell, Keene, N.H.). A three-layer filtration medium was used, consisting (from top to bottom) of Protran nitrocellulose (Schleicher & Schuell), Hybond-P nylon (Amersham Biosciences) and GB002 gel blot paper (Schleicher & Schuell). RNA that is bound to protein is captured on the nitrocellulose filter, whereas the non-protein bound RNA is captured on the nylon filter. The gel blot paper was included simply as a supporting medium for the other filters. Following filtration, the filter layers were separated, dried and exposed on a phosphor screen (Amersham Biosciences, Piscataway, N.J.) and quantified using a Storm 860 Phosphorimager® blot imaging system (Amersham Biosciences).
When a significant positive ratio of binding of RNA in the presence of h-IL-23 versus in the absence of h-IL-23 was seen, the pools were cloned using a TOPO TA cloning kit (Invitrogen, Carlsbad, Calif.) according to the manufacturer's instructions. For the h-IL-23 and X-IL-23 selections, the Round 8 pool templates were cloned, and 32 individual clones from each selections were assayed in a 1-point dot blot screen (+/−75 nM h-IL-23, as well as a separate screen at +/−75 nM h-IL-12). For the PN-IL-23 selection, the Round 10 pool was cloned and sequenced, and 8 unique clones were assayed for protein binding in a 1-point dot blot screen (+/−200 nM h-IL-23 and a separate screen at +/−200 nM h-IL-12). Subsequently, the Round 10 PN-IL-23 pool was re-cloned for further sequences, as well as the R12 PN-IL-23 pool, and the clones were assayed for protein binding in a 1 point do blot screen (+/−100 nM h-IL-23 or +/−200 nM h-IL-12).

The target of data set [3] is T1, IL-23 (human, p19/p40 heterodimer). The experiment in a line: cell_activity; TransAM STAT3. The following applies: tags: R&D Systems, carrier free. How it is done:
In summary, the cell-based assay was conducted by isolating the peripheral blood mononuclear cells (PBMCs) from whole blood using a Histopaque gradient (Sigma, St. Louis, Mo.). The PBMCs were cultured for 3 to 5 days at 37° C./5% CO₂ in Peripheral Blood Medium (Sigma) which contains PHA, supplemented with IL-2 (100 units/mL) (R&D Systems, Minneapolis, Minn.), to generate PHA Blasts. To test IL-23 aptamers, the PHA Blasts were washed twice with 1×PBS, then serum starved for four hours in RPMI, 0.20% FBS. After serum starvation, approximately 2 million cells were aliquotted into appropriately labeled eppendorf tubes. hIL-23 at a final constant concentration of 3 ng/mL (R&D Systems, Minneapolis, Minn.) was combined with a dilution series of various IL-23 aptamers as described in Example 1, and the cytokine/aptamer mixture was added to the aliquotted cells in a final volume of 100 μl and incubated at 37° C. for 10-12 minutes. The incubation reaction was stopped by adding 1 mL of ice-cold PBS with 1.5 mM Na₃VO₄. Cell lysates were made using the lysis buffer provided by the TransAM™ STAT 3 assay following the manufacturer's instructions. FIG. 20 depicts a flow summary of the protocol used for the cell based assay.
Full length clones from the rRfY selection described in Example 1A, and select minimized rRfY clones that were described in Example 2A. 1, were tested using the TransAM™ STAT3 activation assay. Table 34 summarizes the cell based assay data for IL-23 full length aptamers generated from the rRfY selections described in Example 1A. 1, each compared to the activity of their respective parent (full length) clone.

Data set [4] shares this target. The experiment in a line: filter; DPBS Ca Mg. As to conditions: tags: R&D Systems, carrier free. How it is done:
The dot blot binding assay previously described was used to characterize the relative potency of the majority of the aptamers synthesized. For KD determination, chemically synthesized aptamers were purified using denaturing polyacrylamide gel electrophoresis, 5′end labeled with γ-³²P ATP and were tested for direct binding to full human IL-23. An 8 point protein titration was used in the dot blot binding assay (either {100 nM, 30 nM, 10 nM, 3 nM, 1 nM, 300 pM, 100 pM, 0 pM} or {10 nM, 3 nM, 1 nM, 300 pM, 100 pM, 30 pM, 10 pM, 0 pM}) in Dulbecco's PBS (with Mg⁺⁺ and Ca⁺⁺) with 0.1 mg/mL BSA. KD values were calculated by fitting the equation y=(max/(1+K/protein))+yint using KaleidaGraph (KaleidaGraph v. 3.51, Synergy Software). Sequences of the ARC979 derivatives synthesized, purified and assayed for binding to IL-23 as well as the results of the protein binding characterization are tabulated below in Tables 29 and 30.

T1 sequence (Q9NPF7 20-189, chain 1 of 2): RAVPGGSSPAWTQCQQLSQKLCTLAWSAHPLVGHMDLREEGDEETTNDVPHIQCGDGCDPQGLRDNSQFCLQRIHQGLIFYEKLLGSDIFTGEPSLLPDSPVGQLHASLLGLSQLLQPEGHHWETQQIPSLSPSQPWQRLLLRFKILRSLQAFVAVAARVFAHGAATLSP
T1 sequence (P29460 23-328, chain 2 of 2): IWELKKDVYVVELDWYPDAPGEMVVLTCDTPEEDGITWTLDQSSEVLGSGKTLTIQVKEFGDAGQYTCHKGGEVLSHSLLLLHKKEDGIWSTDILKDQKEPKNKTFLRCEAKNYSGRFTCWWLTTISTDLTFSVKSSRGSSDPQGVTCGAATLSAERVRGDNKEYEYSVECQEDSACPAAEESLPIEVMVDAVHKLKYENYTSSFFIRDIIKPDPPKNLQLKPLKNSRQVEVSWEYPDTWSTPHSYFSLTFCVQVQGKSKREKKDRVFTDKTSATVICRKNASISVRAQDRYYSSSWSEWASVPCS
IL-12 (human, p35/p40 heterodimer), sequence (P29459 23-219, chain 1 of 2): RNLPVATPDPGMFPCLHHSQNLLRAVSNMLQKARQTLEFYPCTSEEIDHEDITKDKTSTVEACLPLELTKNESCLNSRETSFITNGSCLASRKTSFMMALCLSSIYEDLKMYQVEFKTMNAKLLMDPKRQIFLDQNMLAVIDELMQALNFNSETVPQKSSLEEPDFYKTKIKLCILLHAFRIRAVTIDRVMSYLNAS
IL-12 (human, p35/p40 heterodimer), sequence (P29460 23-328, chain 2 of 2): as the sequence (P29460 23-328, chain 2 of 2) above

B1: AMX86-B5 (ssRNA)
RNA: GGGAAAAGCGAAUCAUACACAAGAUUAGUGCGUGUGUUGAAAGGGCUCAUAAUGUCAGUAUCGAGCUCCGCCAGAGACCAACCGAGAA
modifications: 2'-F C,U
In the case of B1, in data set [1], the binding result was “no binding”. In data set [2], this molecule returned a Kd of 196 nM.

B2: AMX91-F11 (ssRNA)
RNA: GGGAAAAGCGAAUCAUACACAAGACGCGUCAGGUCCACGCUGAAAUUUAUUUUCGGCAGUGUAAGCUCCGCCAGAGACCAACCGAGAA
modifications: 2'-F C,U
Regarding B2, in data set [1], the binding result was “no binding”. Besides, binding in data set [2] was put at a Kd of 202 nM.

B3: AMX86-A9 (ssRNA)
RNA: GGGAAAAGCGAAUCAUACACAAGAUCUACGAUUGUUCAGGUUUUUUGUACUCAACUAAAGGCGAGCUCCGCCAGAGACCAACCGAGAA
modifications: 2'-F C,U
On to B3, for which the binding result in data set [1] is recorded as “no binding”. This molecule also displayed a Kd in data set [2] of 190 nM.

B4: AMX91-G1 (ssRNA)
RNA: GGGAAAAGCGAAUCAUACACAAGAUAUGUGCCUGGGAUGGACGACAUCCCCUGUCUAAGGAUAUGCUCCGCCAGAGACCAACCGAGAA
modifications: 2'-F C,U
With B4, in data set [1], the binding result is recorded as “no binding”. This molecule returned a Kd in data set [2] of 82.3 nM.

B5: AMX91-B5 (ssRNA)
RNA: GGGAAAAGCGAAUCAUACACAAGACAGUGUAUGAGGAAGAUUACUUCCAUUCCUGAGCGGUUUUCGCUCCGCCAGAGACCAACCGAGAA
modifications: 2'-F C,U
On to B5, for which the binding result in data set [1] is reported as “no binding”. The molecule further returned a Kd in data set [2] of 148 nM.

B6: AMX84-E12 (ssRNA)
RNA: GGGAAAAGCGAAUCAUACACAAGAAGUUUUUGUGCUCUGAGUACUCAGCGUCCGUAAGGGAUAUGCUCCGCCAGAGACCAACCGAGAA
modifications: 2'-F C,U
In the case of B6, the binding result in data set [1] is recorded as “no binding”. Moreover, binding in data set [2] was put at a Kd of 27.8 nM.

B7: F11.min2 (ssRNA)
RNA: GGACAUACACAAGAUGUGCUUGAGUUAAAUCUCAUCGUCCCCGUUUGGGGAUAUGUC
modifications: 2'-F C,U
B7 came in with an IC50 in data set [3] of 25 nM.

B8: AMX86-C7 (ssRNA)
RNA: GGGAAAAGCGAAUCAUACACAAGAUGCGCUAUGUUUGGCUGGGAAUUGUAGCAUUGCUCAAGUGGCUCCGCCAGAGACCAACCGAGAA
modifications: 2'-F C,U
As for B8, the binding result in data set [1] was “no binding”. This molecule showed a Kd in data set [2] of 140 nM.

B9: AMX86-E6 (ssRNA)
RNA: GGGAAAAGCGAAUCAUACACAAGAUCGCAAAAGGAGUUUGUCUCUGCUCUCGGAGUGUGUCAGUGCUCCGCCAGAGACCAACCGAGAA
modifications: 2'-F C,U
With B9, the binding result in data set [1] is recorded as “no binding”. In addition, binding in data set [2] was put at a Kd of 51.3 nM.

B10: AMX86-C8 (ssRNA)
RNA: GGGAAAAGCGAAUCAUACACAAGAGUCGUGAUGAUUUGGGUUAUGUCAGUUCCCUGUAUGGUUUCGCUCCGCCAGAGACCAACCGAGAA
modifications: 2'-F C,U
On to B10, for which the binding result in data set [1] is on record as “no binding”. The Kd in data set [2] stood at 107 nM.

B11: AMX86-D8 (ssRNA)
RNA: GGGAAAAGCGAAUCAUACACAAGACAGAGGCAAUGAGAGCCUGGCGAUGUCAGUCGCAUCUUGCUGCUCCGCCAGAGACCAACCGAGAA
modifications: 2'-F C,U
Take B11: the binding result in data set [1] was “no binding”. Moreover, the Kd in data set [2] worked out at 294 nM.

B12: AMX86-H7 (ssRNA)
RNA: GGGAAAAGCGAAUCAUACACAAGAGAUGACUACACGCCAGUGUGCGCUUUUUGCGGAGUUAGCGGCUCCGCCAGAGACCAACCGAGAA
modifications: 2'-F C,U
On to B12, for which the binding result in data set [1] was “no binding”. This molecule also had a Kd in data set [2] of 89.8 nM.

B13: AMX86-G9 (ssRNA)
RNA: GGGAAAAGCGAAUCAUACACAAGAUCCCAGCGGUACGUGAGUCUGUUAAAGGCCACCUAAUGUCGCUCCGCCAGAGACCAACCGAGAA
modifications: 2'-F C,U
Consider B13, for which, in data set [1], the binding result is given as “no binding”. Besides, binding in data set [2] was characterised by a dissociation constant (Kd) of 109 nM.

For the molecule ACAGGCAAGUAAUUGGGGAGUGCGGGCGGGGUGU (mixed, 2'-OMe C,U and G4; other A,G deoxy; 3'-idT) [ARC1429], the Kd in data set [4] came out at 29.5 nM.

B14: ARC1462 (mixed)
RNA: ACAGGCAAGUAAUUGGGGAGUGCGGGCGGGGUGU
modifications: deoxy A,G; 2'-OMe C,U; PS 29-30; 3'-idT [2'-OMe C,U at 2,6,10,13,14,21,23,27,32,34; deoxy A,G elsewhere; PS 29-30 (N = PS linkage, left out); 3'-inverted dT at 35]
Consider B14, for which the Kd in data set [4] is 1.7 nM.

B15: AMX86-F6 (ssRNA)
RNA: GGGAAAAGCGAAUCAUACACAAGAAUGUAUACAAUGCCCUAUCGUCAGUUAGGCAUGUGUGGAUGCUCCGCCAGAGACCAACCGAGAA
modifications: 2'-F C,U
Turning to B15, the binding result in data set [1] was “no binding”. The same molecule gave a Kd in data set [2] of 69.1 nM.

B16: AMX84-A11 (ssRNA)
RNA: GGGAAAAGCGAAUCAUACACAAGAGAGGUAUGUGGUUUUGCGGAGCAACUCGUGUCAGCGGUCAGCUCCGCCAGAGACCAACCGAGAA
modifications: 2'-F C,U
For B16, the binding result in data set [1] is reported as “no binding”. Further, the Kd in data set [2] was 17.8 nM. GGAGUACGCCGAAAGGCGCUUCCGAAAGGACGUCCGUAAGGGAUACUCC (ssRNA, 2'-F C,U) [Type 1.5] returned an IC50 in data set [3] of 80 nM.

B17: AMX91-A6 (ssRNA)
RNA: GGGAAAAGCGAAUCAUACACAAGAUUGGCAAUGUGACCUUCAACCCUUUUCCCGAUGAACAGUGGCUCCGCCAGAGACCAACCGAGAA
modifications: 2'-F C,U
Regarding B17, the binding result in data set [1] is recorded as “no binding”. Moreover, the Kd in data set [2] came out at 60.3 nM.

B18: AMX91-H12 (ssRNA)
RNA: GGGAAAAGCGAAUCAUACACAAGACGUGUGCUUUAUGUAAACCAUAACGUUCCAUAAGGAAUAUGCUCCGCCAGAGACCAACCGAGAA
modifications: 2'-F C,U
For B18, the binding result in data set [1] is reported as “no binding”. In data set [2], the Kd was found to be 60.8 nM.

B19: AMX91-G11 (ssRNA)
RNA: GGGAAAAGCGAAUCAUACACAAGACUUAACAGUGCGGGGCGCAGUGUAUAGAUCCGCAAUGUGUGCUCCGCCAGAGACCAACCGAGAA
modifications: 2'-F C,U
For the molecule B19, the binding result in data set [1] was “no binding”. Binding in data set [2] was put at a Kd of 104 nM.

B20: AMX91-E3 (ssRNA)
RNA: GGGAAAAGCGAAUCAUACACAAGAUUACUCCGUUAGUGUCAGUUGACGGAGGGAGCGUACUAUUGCUCCGCCAGAGACCAACCGAGAA
modifications: 2'-F C,U
B20: the binding result in data set [1] is on record as “no binding”. Also, the affinity in data set [2], expressed as Kd, was 205 nM.
